“And” between values parts separate entries of the source, which are not always exact repeats. Identical values can stand only once.

Data set [1] deals with T1, Lys(Dnp)-DDGDR-HAEGT-Lys(Abz)amide.
T1 chain: KDDGDRHAEGTK

Data set [2] addresses T2, Lys(Dnp)-DDGDR-HSQGT-Lys(Abz)amide.
T2 chain: KDDGDRHSQGTK

In data set [3] the target is T3, Lys(Dnp)-DGGDR-EGTFT-Lys(Abz)amide.
T3 chain: KDGGDREGTFTK

Data set [4] has as its target T4, Lys(Dnp)-DHGDR-HAEGT-Lys(Abz)amide.
T4 chain: KDHGDRHAEGTK

In data set [5] the target is T5, Lys(Dnp)-DSGDR-HGEGT-Lys(Abz)amide.
T5 chain: KDSGDRHGEGTK

The target of data set [6] is T6, Lys(Dnp)-DSGDR-QGTFT-Lys(Abz)amide.
T6 chain: KDSGDRQGTFTK

Data set [7] deals with T7, Lys(Dnp)-EAGDR-HGEGT-Lys(Abz)amide.
T7 chain: KEAGDRHGEGTK

The target of data set [8] is T8, Lys(Dnp)-EEGDR-EGTFT-Lys(Abz)amide.
T8 chain: KEEGDREGTFTK

Data set [9] deals with T9, Lys(Dnp)-FEGDR-HAEGT-Lys(Abz)amide.
T9 chain: KFEGDRHAEGTK

B1: bovine Enterokinase light chain variant (C112A, L134K, I135K) (protein)
chain: IVGGSDSREGAWPWVVALYFDDQQVCGASLVSRDWLVSAAHCVYGRNMEPSKWKAVLGLHMASNLTSPQIETRLIDQIVINPHYNKRRKNNDIAMMHLEMKVNYTDYIQPIALPEENQVFPPGRICSIAGWGAKKYQGSTADVLQEADVPLLSNEKCQQQMPEYNITENMVCAGYEAGGVDSCQGDSGGPLMCQENNRWLLAGVTSFGYQCALPNRPGVYARVPRFTEWIQSFLH
Take B1: the Activity (%) in data set [1] is 604% and 601%; in [2], 310%; in [3], 322%; in data set [4], 545%; in data set [5] it was 282%; in [6] it was 125%. Moreover, the Activity (%) in [7] amounted to 275%; in [8] it was 580%; in data set [9] it was 397%.

The values are drawn from patent publication US20160319321.
